± gives the uncertainty stated by the source.
Experiment: self-splicing fitness, log relative to wild type (ln ratio); higher = more splicing; Tetrahymena group I intron in knt gene, E. coli kanamycin selection, DiMSum; sequences stand for … in CUCUCU…GGAGGGAAAAGUUAUCAGGCAUGCACCUGGUAGCUAGUCUUUAAACCAAUAGAUUGCAUCGGUUUAAAAGGCAAGACCGUCAAAUUGCGGGAAAGGGGUCAACAGCCGUUCAGUACCAAGUCUCAGGGGAAACUUUGAGAUGGCCUUGCAAAGGGUAUGGUAAUAAGCUGACGGACAUGGUCCUAACCACGCAGCCAAGUCCUAAGUCAACAGAUCUUCUGUUGAUAUGGAUGCAGUUCACAGACUAAAUGUCGGUCGGGGAAGAUGUAUUCUUCUCAUAAGAUAUAGUCGGACCUCUCCUUAAUGGGAGCUAGCGGAUGAAGUGAUGCAACACUGGAGCCGCUGGGAACUAAUUUGUAUGCGAAAGUAUAUUGAUUAGUUUUGGAGUACUCGUGGUCG
Procedure, shortened: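 Fitness was computed with DiMSum as the error-weighted combination of replicate fold changes, kanamycin versus none, each normalised to wild type. The library randomised all eight intron nucleotides of the P1ex region, with the intron placed in the knt kanamycin-resistance gene on pET-22b(+) in E. coli BL21(DE3). Six replicate transformations were grown overnight at 37°C or 30°C on LB agar with or without 25 μg/mL kanamycin, plus 100 μg/mL carbenicillin, 50 μM IPTG and 0.2% rhamnose. Pooled colonies were amplicon-sequenced on an Illumina HiSeq 2500.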

Sequence | self-splicing fitness (ln) (30 °C) | self-splicing fitness (ln) (37 °C)
AGGAAGCAAUAUUACGCGGG | -1.85 ± 0.18 | -1.67 ± 0.14
AGGAAGCAAUAUUACGCUAG | -2.44 ± 0.42 | –
AGGAAGCAAUAUUACGCUUA | -2.41 ± 0.2 | -0.908 ± 0.17
AGGAAGCAAUAUUACGGAAG | -2.98 ± 0.25 | -2.28 ± 0.39
AGGAAGCAAUAUUACGGAGU | -2.89 ± 0.17 | -1.7 ± 0.22
AGGAAGCAAUAUUACGGAUU | -2.3 ± 0.12 | -1.55 ± 0.14
AGGAAGCAAUAUUACGGCCA | -0.118 ± 0.14 | 0.223 ± 0.19
AGGAAGCAAUAUUACGGCGC | -0.231 ± 0.11 | -0.104 ± 0.15
AGGAAGCAAUAUUACGGGGG | – | -1.89 ± 0.36
AGGAAGCAAUAUUACGGUGU | -3.33 ± 0.16 | -1.48 ± 0.1
AGGAAGCAAUAUUACGUACG | -1.15 ± 0.11 | -0.064 ± 0.1
AGGAAGCAAUAUUACGUAGG | -3 ± 0.15 | -2.3 ± 0.23
AGGAAGCAAUAUUACGUUGA | – | -1.63 ± 0.46
AGGAAGCAAUAUUACGUUUU | -4.64 ± 0.31 | -1.82 ± 0.23
AGGCAGCAAUAUUACGAAAU | -1.8 ± 0.13 | -1.34 ± 0.15
AGGCAGCAAUAUUACGAACG | -1.11 ± 0.14 | 0.48 ± 0.16
AGGCAGCAAUAUUACGACCA | -0.404 ± 0.11 | 0.544 ± 0.17
AGGCAGCAAUAUUACGACGC | -0.638 ± 0.12 | -0.663 ± 0.14
AGGCAGCAAUAUUACGACUC | -1.65 ± 0.14 | -1.01 ± 0.19
AGGCAGCAAUAUUACGAGAG | -3.49 ± 0.15 | -2.79 ± 0.15
AGGCAGCAAUAUUACGCACU | -1.3 ± 0.11 | -0.863 ± 0.17
AGGCAGCAAUAUUACGCCUU | – | -3.04 ± 0.27
AGGCAGCAAUAUUACGCGCA | -0.635 ± 0.07 | -0.0389 ± 0.098
AGGCAGCAAUAUUACGCGGG | -2.65 ± 0.14 | -2.55 ± 0.17
AGGCAGCAAUAUUACGCGUA | -0.695 ± 0.09 | -0.127 ± 0.095

Sequence | self-splicing fitness (ln) (30 °C) | self-splicing fitness (ln) (37 °C)
AGGCAGCAAUAUUACGCUAA | -1.05 ± 0.097 | -0.682 ± 0.11
AGGCAGCAAUAUUACGCUGA | -2.21 ± 0.13 | -1.84 ± 0.21
AGGCAGCAAUAUUACGGCCA | -1.07 ± 0.15 | -0.0424 ± 0.21
AGGCAGCAAUAUUACGGGCA | -1.39 ± 0.2 | -0.422 ± 0.17
AGGCAGCAAUAUUACGUGCC | -2.9 ± 0.26 | -2.73 ± 0.31
AGGCAGCAAUAUUACGUGGG | -2.95 ± 0.095 | -2.97 ± 0.15
AGGCAGCAAUAUUACGUUAC | -3.46 ± 0.2 | -2.55 ± 0.31
AGGCAGCAAUAUUACGUUGA | -2.42 ± 0.11 | -1.25 ± 0.1
AGGCAGCAAUAUUACGUUUU | -1.59 ± 0.065 | -0.435 ± 0.079
AGGGAGCAAUAUUACGAACG | -2.58 ± 0.39 | -1.9 ± 0.36
AGGGAGCAAUAUUACGAAGG | -2.19 ± 0.31 | –
AGGGAGCAAUAUUACGAGAU | -2.75 ± 0.29 | -3.06 ± 0.48
AGGGAGCAAUAUUACGAGGC | -2.51 ± 0.35 | -2.59 ± 0.44
AGGGAGCAAUAUUACGCACU | -3.18 ± 0.4 | -0.0242 ± 0.24
AGGGAGCAAUAUUACGCGCA | -1.71 ± 0.4 | -2.11 ± 0.34
AGGGAGCAAUAUUACGCGGA | -2.2 ± 0.21 | -2.68 ± 0.3
AGGGAGCAAUAUUACGCUGU | -2.11 ± 0.26 | -3.01 ± 0.47
AGGGAGCAAUAUUACGGAAC | -3.01 ± 0.38 | -2.68 ± 0.41
AGGGAGCAAUAUUACGGACC | -2.79 ± 0.36 | -1.37 ± 0.36
AGGGAGCAAUAUUACGGAGA | -2.65 ± 0.4 | -2.69 ± 0.32
AGGGAGCAAUAUUACGGCAA | -3.52 ± 0.48 | -1.8 ± 0.27
AGGGAGCAAUAUUACGGCCU | -2.43 ± 0.22 | -1.41 ± 0.24
AGGGAGCAAUAUUACGGCUA | -2.09 ± 0.21 | -2.17 ± 0.18
AGGGAGCAAUAUUACGGGCA | -3.79 ± 0.43 | -1.46 ± 0.34

From the supplement of paper PMC7877785
